# From patent US20130171133A1 (IMPERIAL INNOVATIONS, published 2013)
# Key:
# [1] = biological target: T1, EphA2 (from cell lysates) (human, UniProt P29317 24-976); assay: co-IP and reciprocal co-IP, FIG. 17A
# T1 construct: whole, on cells; Tested by co-immunoprecipitation from cell lysates
# [2] = biological target: HER2 (full length, from SK-OV-3 derived cell lysates) (human, UniProt P04626 23-1255); assay: cell-based or functional assay
# [3] = biological target: T2, FGFR1 (full length, from cell lysates; endogenous or SK-OV-3 cells transiently transfected with FGFR1 cDNA) (human, UniProt P11362 22-822); assay: co-IP with OPCML Ab, immunoblot with anti-FGFR1 ECD Ab, FIG. 2A(ii)
# T2 construct: whole, on cells; Tested from detergent cell lysates (co-IP, GST pull-down); also called fibroblast growth factor receptor 1
# T2 sequence (P11362 22-822): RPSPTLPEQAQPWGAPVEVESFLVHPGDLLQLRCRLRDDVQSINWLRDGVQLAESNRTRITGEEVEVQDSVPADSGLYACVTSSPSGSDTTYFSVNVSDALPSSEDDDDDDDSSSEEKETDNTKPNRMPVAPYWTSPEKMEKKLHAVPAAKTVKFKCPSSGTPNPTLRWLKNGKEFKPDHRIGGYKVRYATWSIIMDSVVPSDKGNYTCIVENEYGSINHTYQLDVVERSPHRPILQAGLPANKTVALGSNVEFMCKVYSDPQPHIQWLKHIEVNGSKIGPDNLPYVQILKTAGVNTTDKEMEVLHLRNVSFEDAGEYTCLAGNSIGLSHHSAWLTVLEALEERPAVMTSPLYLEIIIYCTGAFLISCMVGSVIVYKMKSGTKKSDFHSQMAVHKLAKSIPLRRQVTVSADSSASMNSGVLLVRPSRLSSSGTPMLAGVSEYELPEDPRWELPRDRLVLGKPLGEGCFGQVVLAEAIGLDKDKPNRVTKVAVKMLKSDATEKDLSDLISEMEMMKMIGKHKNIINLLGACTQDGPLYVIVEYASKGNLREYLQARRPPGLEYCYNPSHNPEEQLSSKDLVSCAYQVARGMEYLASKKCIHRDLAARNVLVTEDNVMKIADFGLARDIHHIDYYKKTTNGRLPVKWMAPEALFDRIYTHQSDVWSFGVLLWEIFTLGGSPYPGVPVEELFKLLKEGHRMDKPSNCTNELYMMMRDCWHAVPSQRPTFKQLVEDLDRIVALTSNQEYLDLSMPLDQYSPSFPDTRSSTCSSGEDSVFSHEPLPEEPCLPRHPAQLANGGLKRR
# Description: Cell layers were washed in PBS and incubated for 30 minutes in lysis buffer (1% TritonX-100, 10 mM Tris pH8.0, 150 mM NaCl, 2.5 mM MgCl₂, 5 mM EGTA, 1 mM Na₃VO₄, 50 mM NaF and […] (Roche). Cell Lysates were then cleared by centrifugation at 13,000 rpm for 20 minutes at 4° C. and aliquots containing equal amounts of protein were incubated with the appropriate antibody before addition of secondary antibody conjugated to sepharose resin. Beads were then washed 3× with lysis buffer and eluted by heating for 5 minutes in […] of SDS sample buffer.
binder,measurement,setting,value
"OPCML (opioid binding protein cell adhesion molecule), human, expressed in cells (stably transfected SK-OV-3 lines BKS2.1 and SKOBS-3.5) (other, GPI anchor at N322; N-linked glycosylation, Full OPCML cDNA in pcDNA3.1zeo, expressed in SK-OV-3 derived lines; immunoprecipitated from Triton X-100 cell lysates; also called OBCAM; OPCML polypeptide) GVPVRSGDATFPKAMDNVTVRQGESATLRCTIDDRVTRVAWLNRSTILYAGNDKWSIDPRVIILVNTPTQYSIMIQNVDVYDEGPYTCSVQTDNHPKTSRVHLIVQVPPQIMNISSDITVNEGSSVTLLCLAIGRPEPTVTWRHLSVKEGQGFVSEDEYLEISDIKRDQSGEYECSALNDVAAPDVRKVKITVNYPPYISKAKNTGVSVGQKGILSCEASAVPMAEFQWFKEETRLATGLDGMRIENKGRMSTLTFFNVSEKDYGNYTCVATNKLGNTNASITLYGPGAVIDGVN",binding result,[1],binds
same,"fold decrease in effective concentration of lapatinib required to abolish the EGF induced phospho-ERK signal, BKS2.1 against SKOBS-V1.2",[2],10 fold
same,binding result,[3],binds
